# Laboratory results as given in US20060222643A1 (Chugai, published 2006).
# No end group written: not given here.
# T1: cynomolgus monkey Mpl expressed on CHO cells (CHO-monkey Mpl) (cynomolgus monkey, UniProt P40238 26-635 (human entry))
# T1 construct: pCXND3-monkey Mpl-His in CHO-DG44; also called monkey Mpl-His
# T1 chain: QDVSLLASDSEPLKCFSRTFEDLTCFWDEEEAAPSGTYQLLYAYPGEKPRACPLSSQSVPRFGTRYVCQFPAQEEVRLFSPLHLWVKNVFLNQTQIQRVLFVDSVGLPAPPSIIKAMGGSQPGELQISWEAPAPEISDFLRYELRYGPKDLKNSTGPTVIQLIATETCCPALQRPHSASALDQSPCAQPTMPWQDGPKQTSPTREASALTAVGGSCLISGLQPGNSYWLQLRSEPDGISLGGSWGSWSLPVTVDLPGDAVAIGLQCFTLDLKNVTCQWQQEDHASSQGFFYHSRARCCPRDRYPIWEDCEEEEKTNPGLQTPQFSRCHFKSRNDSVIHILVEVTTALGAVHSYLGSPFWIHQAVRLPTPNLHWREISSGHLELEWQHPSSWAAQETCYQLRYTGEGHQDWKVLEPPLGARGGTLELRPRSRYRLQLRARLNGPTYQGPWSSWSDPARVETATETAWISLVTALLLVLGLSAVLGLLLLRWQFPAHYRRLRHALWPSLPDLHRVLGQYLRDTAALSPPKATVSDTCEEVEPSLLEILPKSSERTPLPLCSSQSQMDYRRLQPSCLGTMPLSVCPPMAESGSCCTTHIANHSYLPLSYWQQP
# T2: mouse Mpl expressed on CHO cells (CHO-mouse Mpl) (mouse, UniProt Q08351 26-625)
# T2 construct: whole, on cells; pCXND3-mouse Mpl-His in CHO-DG44; also called mouse Mpl-His
# T2 sequence (looked up): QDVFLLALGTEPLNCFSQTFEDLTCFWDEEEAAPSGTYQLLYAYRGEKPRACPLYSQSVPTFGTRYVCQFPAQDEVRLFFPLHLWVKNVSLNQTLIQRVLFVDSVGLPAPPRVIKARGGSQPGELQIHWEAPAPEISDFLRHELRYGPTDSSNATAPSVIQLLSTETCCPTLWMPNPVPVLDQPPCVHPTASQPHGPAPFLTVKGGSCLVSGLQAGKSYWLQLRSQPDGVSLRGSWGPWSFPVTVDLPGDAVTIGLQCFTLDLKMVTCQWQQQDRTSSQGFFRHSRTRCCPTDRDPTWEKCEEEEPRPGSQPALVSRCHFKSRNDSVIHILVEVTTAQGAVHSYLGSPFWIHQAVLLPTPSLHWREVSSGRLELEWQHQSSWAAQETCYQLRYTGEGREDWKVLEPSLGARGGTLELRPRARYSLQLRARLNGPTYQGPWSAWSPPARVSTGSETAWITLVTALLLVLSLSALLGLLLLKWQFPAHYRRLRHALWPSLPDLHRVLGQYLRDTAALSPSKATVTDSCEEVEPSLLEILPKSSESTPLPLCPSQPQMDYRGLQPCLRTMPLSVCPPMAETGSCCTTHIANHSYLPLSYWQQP
# T3: human Mpl expressed on BaF3 cells (BaF3-human Mpl) (human, UniProt P40238 26-635)
# T3 sequence: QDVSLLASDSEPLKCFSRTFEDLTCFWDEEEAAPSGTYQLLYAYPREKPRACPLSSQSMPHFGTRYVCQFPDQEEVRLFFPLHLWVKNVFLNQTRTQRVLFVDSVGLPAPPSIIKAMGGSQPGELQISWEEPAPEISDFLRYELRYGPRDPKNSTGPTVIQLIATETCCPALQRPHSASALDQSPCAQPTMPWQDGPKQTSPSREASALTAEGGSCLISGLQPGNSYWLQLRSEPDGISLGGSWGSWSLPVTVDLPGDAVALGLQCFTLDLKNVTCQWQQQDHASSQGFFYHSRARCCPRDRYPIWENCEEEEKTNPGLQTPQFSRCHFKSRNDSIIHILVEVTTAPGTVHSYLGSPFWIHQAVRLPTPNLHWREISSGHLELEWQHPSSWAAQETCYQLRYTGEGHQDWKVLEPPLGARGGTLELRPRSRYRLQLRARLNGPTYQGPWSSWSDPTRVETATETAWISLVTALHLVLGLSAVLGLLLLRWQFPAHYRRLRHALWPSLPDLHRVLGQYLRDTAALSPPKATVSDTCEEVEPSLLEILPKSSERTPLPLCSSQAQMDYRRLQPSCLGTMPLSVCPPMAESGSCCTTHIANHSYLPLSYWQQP
# T4: MG10 (Gln213 to Ala231)-GST fusion protein (human, also: fused with GST)
# T4 construct: As MG1; also called MG10-GST fusion protein; GST fusion protein containing MG10; not shown: glutathione-S-transferase of vector pGEX-4T-3 (Amersham Biosciences)
# T4 chain: QPTMPWQDGPKQTSPSREA
# Columns and labels:
# [1] = target: human Mpl expressed on BaF3 cells (BaF3-human Mpl) (human) (UniProt P40238); assay: cell-based or functional assay
# [2] = target: T1, cynomolgus monkey Mpl expressed on CHO …; assay: flow cytometry on CHO-monkey Mpl cells; COS7 culture supernatant; detection with anti-FLAG M2 antibody and FITC-labeled anti-mouse IgG
# Description: (§1) CHO-human Mpl, CHO-monkey Mpl, and CHO-mouse Mpl cells were recovered and suspended in FACS buffer (1% FBS/PBS) to a final concentration of 1×10⁶ cells/mL. Cell suspensions were aliquoted at 100-μL/well into the Multiscreen-HV Filter Plates (Millipore). After centrifugation, the supernatant was removed. An appropriate concentration of diabody or sc(Fv)2 was added into each well and incubated on ice for 30 min. The cells were washed once with 200 μL of FACS buffer, and incubated on ice for 30 min following the addition of 10 μg/mL ANTI-FLAG® M2 Monoclonal Antibody (Sigma-Aldrich). The cells were then washed once with 200 μL of FACS buffer, and a 100×-diluted FITC-labeled anti-mouse IgG antibody (Beckman Coulter) was added to the plate. The plate was incubated on ice for 30 min. After centrifugation, the supernatant was removed. The cells were suspended in 400 μL of FACS Buffer, and then analyzed by flow cytometry using EPICS ELITE ESP (Beckman Coulter). An analysis gate was set on the forward and side scatters of a histogram to include viable cell populations.
# (§2) The binding activities of the diabodies were assessed by flow cytometry using CHO cells that express Mpl derived from various species (FIG. 8). AB317 was proven to bind to CHO-mouse Mpl.
# [3] = target: T2, mouse Mpl expressed on CHO cells …; assay: flow cytometry on CHO-mouse Mpl cells; COS7 culture supernatant; detection with anti-FLAG M2 antibody and FITC-labeled anti-mouse IgG
# Description: as §1, §2
# [4] = target: T3, human Mpl expressed on BaF3 cells …; assay: cell-based or functional assay
# [5] = target: T4, MG10 (Gln213 to Ala231)-GST fusion …; assay: SPR, Biacore 3000, MG10-GST immobilized on CM5, Bivalent analyte model (constants as for the monovalent antibody), triplicate
# Description: The Sensor Chip CM5 (Biacore) was placed in Biacore 3000 (Biacore), and MG10-GST fusion protein was immobilized onto the chip by amine-coupling methods. HBS-EP Buffer (Biacore) was used as the running buffer, and the flow rate was 20 μL/min. 5.5 to 175.0 nM of VB22B IgG solution was prepared using HBS-EP Buffer, and injected over each of the chip surfaces for 2 min to obtain the binding region at the respective concentrations. Then, dissociation region for the 2 minutes was measured. VB22B IgG bound to the MG10-GST fusion protein on the sensor chip was removed by injecting 20 mM HCl over the sensor chip for 1 min, and the chip was recovered. Similarly, 4.7 to 150.1 nM of VB22B sc(Fv)2, 5.3 to 168.9 nM of hVB22B q-wz5 sc(Fv)2, and 4.9 to 156.8 nM of hVB22B u2-wz4 sc(Fv)2 were prepared and injected over the chip surfaces onto which MG10-GST fusion protein was immobilized, and the measurement was carried out.
# All the antibodies used were bivalent antibodies, and thus the sensorgrams at each concentration were obtained in the presence of both monovalent and bivalent bindings. In this context, the reaction rate constant was determined as that for the monovalent antibody by analysis using the Bivalent analyte model of BIAevaluation ver.3.1 software (Biacore). The above analysis was carried out in triplicates for each antibody. The binding rate constant (ka), dissociation rate constant (kd), and dissociation constant (KD) were determined as those for the monovalent antibody by the procedure described above. The constants are indicated below in Table 1.
# [6] = target: T1, cynomolgus monkey Mpl expressed on CHO …; assay: flow cytometry on CHO cells, detection by anti-FLAG M2 and FITC anti-mouse IgG
# Description: as §1
# (§3) The binding activity of the purified VB22B sc(Fv)2 to various Mpl molecules expressed in CHO cells was determined (FIG. 2).
# [7] = target: T2, mouse Mpl expressed on CHO cells …; assay: as above
# Description: as §1, §3
Molecule,"agonistic activity, EC50 (growth of BaF3-human Mpl, WST-8) [1] [nM]",binding result [2],binding result [3],"TPO-like agonistic activity, EC50 (growth of BaF3-human Mpl, WST-8) [4] [nM]",Kd [5] [nM],koff [5] [s⁻¹],kon [5] [M⁻¹ s⁻¹],binding result [6],binding result [7]
"VB22B diabody (scFv, also called VB22B db; VB22B single-chain Fv) scFv: QVQLQQSGPELVKPGASVKISCKASGYAFTNSWMNWVKQRPGKGLEWIGRIYPGDGETIYNGKFRVKATLTADKSSSTAYMDISSLTSEDSAVYFCARGYDDYSFAYWGQGTLVTVSAGGGGSDIVMTQAAPSIPVTPGESVSISCRSSKSLLHSNGNTYLYWFLQRPGQSPQLLIYRMSNLASGVPDRFSGSGSGTAFTLRISRVEAEDVGVYYCMQHIEYPFTFGSGTKLEIK",–,binds,no binding,0.061,–,–,–,–,–
"VB22B sc(Fv)2 (scFv, Single-chain (Fv)2 with 15-residue linkers, purified on anti-Flag gel (FLAG-tagged); also called murine VB22B sc(Fv)2; anti-human Mpl sc(Fv)2) QVQLQQSGPELVKPGASVKISCKASGYAFTNSWMNWVKQRPGKGLEWIGRIYPGDGETIYNGKFRVKATLTADKSSSTAYMDISSLTSEDSAVYFCARGYDDYSFAYWGQGTLVTVSAGGGGSGGGGSGGGGSDIVMTQAAPSIPVTPGESVSISCRSSKSLLHSNGNTYLYWFLQRPGQSPQLLIYRMSNLASGVPDRFSGSGSGTAFTLRISRVEAEDVGVYYCMQHIEYPFTFGSGTKLEIKGGGGSGGGGSGGGGSQVQLQQSGPELVKPGASVKISCKASGYAFTNSWMNWVKQRPGKGLEWIGRIYPGDGETIYNGKFRVKATLTADKSSSTAYMDISSLTSEDSAVYFCARGYDDYSFAYWGQGTLVTVSAGGGGSGGGGSGGGGSDIVMTQAAPSIPVTPGESVSISCRSSKSLLHSNGNTYLYWFLQRPGQSPQLLIYRMSNLASGVPDRFSGSGSGTAFTLRISRVEAEDVGVYYCMQHIEYPFTFGSGTKLEIK",–,–,–,0.027,11.7,0.00491,423000,binds,no binding

# Second part, the molecule after the results:
"agonistic activity, EC50 (growth of BaF3-human Mpl, WST-8) [1] [nM]",binding result [2],binding result [3],"TPO-like agonistic activity, EC50 (growth of BaF3-human Mpl, WST-8) [4] [nM]",Kd [5] [nM],koff [5] [s⁻¹],kon [5] [M⁻¹ s⁻¹],binding result [6],binding result [7],Molecule
0.076,–,–,–,–,–,–,–,–,"recombinant human thrombopoietin (rhTPO, R&D) (from UniProt P40225 22-353) (ligand)"
–,–,–,–,13.6,0.0051,376000,–,–,"hVB22B q-wz5 sc(Fv)2 (scFv, Humanized sc(Fv)2 without Flag tag, purified on an MG10-GST column; also called humanized VB22B sc(Fv)2 (q-wz5)) QVQLVQSGPEVKKPGASVKVSCKASGYTFTNSWMNWVRQRPGKGLEWIGRIYPGDGETIYNGKFRVRVTITADESTSTAYMELSSLRSEDTAVYYCARGYDDYSFAYWGQGTTVTVSSGGGGSGGGGSGGGGSDIVMTQSPLSLPVTPGEPASISCRSSKSLLHSNGNTYLYWFQQKPGQAPRLLIYRMSNLASGVPDRFSGSGSGTAFTLKISRVEAEDVGVYYCMQHIEYPFTFGQGTKLEIKGGGGSGGGGSGGGGSQVQLVQSGPEVKKPGASVKVSCKASGYTFTNSWMNWVRQRPGKGLEWIGRIYPGDGETIYNGKFRVRVTITADESTSTAYMELSSLRSEDTAVYYCARGYDDYSFAYWGQGTTVTVSSGGGGSGGGGSGGGGSDIVMTQSPLSLPVTPGEPASISCRSSKSLLHSNGNTYLYWFQQKPGQAPRLLIYRMSNLASGVPDRFSGSGSGTAFTLKISRVEAEDVGVYYCMQHIEYPFTFGQGTKLEIK"
–,–,–,–,10.2,0.00617,608000,–,–,"hVB22B u2-wz4 sc(Fv)2 (scFv, Humanized sc(Fv)2 without Flag tag, purified on an MG10-GST column; also called humanized VB22B sc(Fv)2 (u2-wz4)) QVQLVQSGPEVKKPGASVKVSCKASGYTFTNSWMNWVRQRPGKGLEWIGRIYPGDGETIYNGKFRVRVTITADESTSTAYMQLSSLRSEDTAVYYCARGYDDYSFAYWGQGTTVTVSSGGGGSGGGGSGGGGSDIVMTQSPLSLPVTPGEPASISCRSSKSLLHSNGNTYLYWFLQKPGQSPQLLIYRMSNLASGVPDRFSGSGSGTDFTLKISRVEAEDVGVYYCMQHIEYPFTFGQGTKLEIKGGGGSGGGGSGGGGSQVQLVQSGPEVKKPGASVKVSCKASGYTFTNSWMNWVRQRPGKGLEWIGRIYPGDGETIYNGKFRVRVTITADESTSTAYMQLSSLRSEDTAVYYCARGYDDYSFAYWGQGTTVTVSSGGGGSGGGGSGGGGSDIVMTQSPLSLPVTPGEPASISCRSSKSLLHSNGNTYLYWFLQKPGQSPQLLIYRMSNLASGVPDRFSGSGSGTDFTLKISRVEAEDVGVYYCMQHIEYPFTFGQGTKLEIK"
